Measurements published in PMC10558804.

Tests used:
Test in all cases: native gel or EMSA; blue native-PAGE (BN-PAGE) of membrane proteins extracted from whole-cell lysates of transfected HEK 293 cells, 10 mM n-dodecyl-β-maltoside, 4 to 16% (or 3 to 12%) Bis/Tris gels, Western blot with anti-GluA1 or anti-GluA2; AMPAR subunit expressed alone or with an auxiliary subunit (cDNA 1:1); oligomeric states (tetramer, dimer, monomer) by molecular mass; tetramer fraction from band intensities; association of an auxiliary subunit read from the upshift of the tetramer band
[1] = target: GluA1 (rat, flip splice variant), wild type (rat (Rattus norvegicus))
[2] = target: GluA1(G816A) (rat (Rattus norvegicus))
[3] = target: GluA1(G816A)-TARP γ-2 tandem (rat (Rattus norvegicus) | rat)
[4] = target: GluA1-TARP γ-2 tandem (rat (Rattus norvegicus) | rat)
[5] = target: GluA1-ΔECD (GluA1 lacking the extracellular ATD and LBD) (rat (Rattus norvegicus))
[6] = target: GluA2(R) (rat, flip splice variant, edited (R) form) (rat (Rattus norvegicus))
[7] = target: GluA2(R)(G823A) (rat (Rattus norvegicus))

GluA1 (rat, flip splice variant), wild type (receptor)
stoichiometry N [1]: 4 | tetramer fraction [1]: 0.84

GluA1(G816A) (receptor)
tetramer fraction [2]: 0.52

GluA1(G816A)-TARP γ-2 tandem
stoichiometry N [3]: 4

GluA1-TARP γ-2 tandem
stoichiometry N [4]: 4

GluA1-ΔECD (GluA1 lacking the extracellular ATD and LBD) (domain or fragment)
stoichiometry N [5]: 4

GluA2(R) (rat, flip splice variant, edited (R) form) (receptor)
stoichiometry N [6]: 4 | tetramer fraction [6]: 0.89

GluA2(R)(G823A) (receptor)
tetramer fraction [7]: 0.45
